# Values quoted from earlier work in patent US20210106646A1, “Combination Of A Novel Topical Gel And Oral Supplements For Healing Diabetic Foot And Other Wounds” (Smart Products & Services Inc. (dba Aloevive), priority 2019, published 2021).
# Details: topical use, per product website
substance,measurement,value
Regranex Gel: Regranex (becaplermin) Gel is a recombinant human platelet-derived growth factor used to treat lower extremity diabetic ulcers,rare but serious side effects,"allergic reactions such as rash, itching, swelling (especially of the face/tongue/throat), dizziness, and trouble breathing"
